One assay deals with human CD20 (human) (UniProt P11836). The assay is described as follows: fixed Ramos cell ELISA, IgG, on-rate format: 5 min IgG step and 5 min second antibody step, goat anti-human IgG-HRP, OD 450. (ELISA stands for enzyme-linked immunosorbent assay.)
The target of assay [1] is T1, human CD20 (human, UniProt P11836 1-297).
T1 construct: whole, on cells; Never used as a purified protein; also called hCD20; Bp35
T1 sequence (looked up): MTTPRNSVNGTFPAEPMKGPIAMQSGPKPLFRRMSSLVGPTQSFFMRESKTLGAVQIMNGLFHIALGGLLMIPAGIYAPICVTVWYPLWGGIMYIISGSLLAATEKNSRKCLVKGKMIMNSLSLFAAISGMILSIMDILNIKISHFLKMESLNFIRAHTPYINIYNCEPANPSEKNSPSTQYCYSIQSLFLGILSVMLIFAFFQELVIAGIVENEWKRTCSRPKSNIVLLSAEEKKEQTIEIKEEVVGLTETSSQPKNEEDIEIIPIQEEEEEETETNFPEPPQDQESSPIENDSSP
As to the kind of experiment: fixed Ramos cell ELISA, OD 450 nm.

The target of assay [2] is T1, human CD20. As to the kind of experiment: cell-based or functional assay.
Assay [3] deals with T1, human CD20. The assay is described as follows: IgG binding to primary human peripheral blood B cells (CD19 sorted), KinExA equilibrium software. The protocol: (§1) SKW 6.4 cells were grown in DMEM media supplemented with 10% FCS and harvested at 5-10×10⁵ cells per ml. […] For human peripheral blood B cells, fresh CD19 positively sorted B cells were obtained from Allcells. These cells were washed two times in PBS with 1% BSA and resuspended at a concentration of 8×10⁷/ml.
(§2) Twelve, 3 fold serial dilutions were then made and 100ul of each dilution placed in a 96 well plate. To each dilution […] of antibody at 100 ng/ml was added and the plate incubated at 37620 C., 5% CO₂ for 4 hours. Each sample was then filtered with a 96 well 1 micron filter (Millipore) to remove the cells and bound antibody. Free antibody in solution was then quantified using an ELISA. Briefly, free IgG was captured in a 96 well plate coated with 1 mg/ml of anti-human kappa antibody (Southern Biotechnology) and detected using an anti-human Fc antibody coupled with HRP (Southern Biotechnology). The plate was developed using Fast TMB substrate (Pierce) and read at 450 nm.
(§3) The Kd of the antibody was then determined using the KinExA equilibrium software for an unknown antigen concentration. The OD450 value for each serial dilution was fitted with an estimated antigen concentration and the actual antibody concentration. The Kd and actual antigen concentration were then calculated.

Assay [4] concerns the target T1, human CD20. The assay is described as follows: IgG binding to SKW 6.4 B lymphoma cells, free antibody by ELISA, KinExA equilibrium software. The protocol: as §1, §2, §3
Assay [5] addresses T1, human CD20. As to the kind of experiment: IgG binding to SKW 6.4 cells over time, free antibody by ELISA, direct kinetics KinExA software. The procedure: SKW 6.4 cells were grown in DMEM media supplemented with 10% FCS and harvested at 5-10×10⁵ cells per ml. […] An equal volume of antibody at 100 ng/ml in PBS with 1% BSA at 37620 C. was then added to the cells and the timing for the experiment started. At time intervals from 60 seconds to 10800 seconds a sample of the antibody cell solution was sampled and filtered to remove cells and bound antibody. Free antibody remaining at each time point was then quantified using the ELISA described above.
The kinetics for the antibody cell reaction was calculated using the direct kinetics KinExA software. The OD450 value for each time point was fitted using the previously calculated Kd and antigen concentration and the Kon and Koff for the reaction calculated.

Assay [6] deals with T1, human CD20. As to the kind of experiment: IgG binding to SKW 6.4 cells, KinExA equilibrium software. The procedure: as §1, §2, §3

In the assay with human CD20 (human), “commercial RITUXAN (Oncology Supply Co.) (antibody)” displayed an EC50 (read off the curve) of 1 µg/mL.

B1: AME 33 IgG (antibody, V domains shown)
VH: EVQLVQSGAEVKKPGESLKISCKGSGRTFTSYNMHWVRQMPGKGLEWMGAIYPLTGDTSYNQKSKLQVTISADKSISTAYLQWSSLKASDTAMYYCARSTYVGGDWQFDVWGKGTTVTVSS
VL: EIVLTQSPGTLSLSPGERATLSCRASSSVPYIHWYQQKPGQAPRLLIYATSALASGIPDRFSGSGSGTDFTLTISRLEPEDFAVYYCQQWLSNPPTFGQGTKLEIKR
notes: Full IgG; also called AME 33 antibody
Take B1: in the assay with human CD20 [1], the “maximum OD relative to the C2B8 antibody” value was around 1.5 times. Further, in the assay with human CD20 [2], the “ADCC, Estimated EC50s, ug/ml (Wil-2 cells as target)” value is 0.0063 µg/mL. For the same molecule, the Kd with human CD20 [3] is 0.113 nM; with human CD20 [4], 0.097 nM. The koff in the assay with human CD20 [5] was determined as 7.7e-05 s⁻¹. This molecule also yielded a kon with human CD20 [5] of 780000 M⁻¹ s⁻¹. The “fold enhancement of Kd compared to the C2B8 antibody” value in the assay with human CD20 [6] came out at 10 fold.

As usually defined, the EC50 (read off the curve) is the midpoint of the concentration-response curve. For orientation: Kd means a measure of binding affinity in units of concentration. Broadly, the koff is a measure of how fast the partners let go of each other. The term kon denotes the rate constant with which the complex forms.

Source of the values: patent US20050025764A1 (published 2005).
